Test [1] addresses T1, mouse EphB4 ectodomain Fc fusion protein (mouse EphB4-Fc-His, R&D Systems) (mouse, UniProt P54761 16-539).
T1 construct: extracellular domain; also called murine EphB4; not shown: Fc part of a bought fusion protein; His tag of the bought protein
T1 sequence (looked up): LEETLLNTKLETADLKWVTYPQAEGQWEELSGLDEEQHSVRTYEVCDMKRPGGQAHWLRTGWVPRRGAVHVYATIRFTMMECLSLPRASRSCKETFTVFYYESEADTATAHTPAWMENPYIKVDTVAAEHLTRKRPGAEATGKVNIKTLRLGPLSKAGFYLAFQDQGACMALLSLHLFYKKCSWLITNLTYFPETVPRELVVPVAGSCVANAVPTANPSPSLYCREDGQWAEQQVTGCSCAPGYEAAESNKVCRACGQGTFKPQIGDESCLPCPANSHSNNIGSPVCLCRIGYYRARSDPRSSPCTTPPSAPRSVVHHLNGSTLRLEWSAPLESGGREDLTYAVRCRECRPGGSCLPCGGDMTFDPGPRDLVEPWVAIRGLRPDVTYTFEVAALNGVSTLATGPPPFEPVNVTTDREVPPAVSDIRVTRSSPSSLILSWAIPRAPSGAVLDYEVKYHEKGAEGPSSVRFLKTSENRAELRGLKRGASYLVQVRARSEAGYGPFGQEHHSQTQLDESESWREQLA
The test is described as follows: competition ELISA: inhibition of mouse ephrin-B2 AP binding to immobilized mouse EphB4 ectodomain Fc. As for the experimental part:
(§1) The ability of peptides to compete the binding of mouse ephrin-B2 alkaline phosphatase to immobilized mouse EphB4-Fc-His (R&D Systems) was measured by ELISA as previously described (Koolpe et al., 2005).
On the technique in general: An ELISA detects its analyte on a solid surface through an enzyme-linked reagent.

The target of test [2] is T2, human EphB4 ephrin-binding domain, EphB4 (17-196) (human, UniProt P54760 17-196).
T2 sequence: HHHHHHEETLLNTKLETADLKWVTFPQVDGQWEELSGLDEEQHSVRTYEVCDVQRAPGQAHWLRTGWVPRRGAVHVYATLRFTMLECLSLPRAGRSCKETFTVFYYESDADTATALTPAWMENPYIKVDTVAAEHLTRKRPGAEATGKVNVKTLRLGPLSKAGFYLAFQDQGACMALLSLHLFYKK
The test is described as follows: ITC at 25 °C. The protocol:
(§2) Experiments were performed at 25° C. in 50 mM Tris pH 7.8, 150 mM NaCl, 1 mM CaCl₂.
(§3) Isothermal titration calorimetry and ELISA experiments: EphB4and ephrin-B2 were either dialyzed or buffer exchanged into 50 mM Tris-Cl (pH 7.8 at 25° C.), 150 mM NaCl, 1 mM CaCl₂, prior to use in calorimetry experiments. Peptides were dissolved into the same buffer used for the dialysis of EphB4. The concentration of EphB4, ephrin-B2 and the peptides was determined by measuring the A₂₈₀ and using the theoretical-extinction coefficient (Gill and von Hippel, 1989). ITC experiments were performed with a Microcal MCS ITC at 25° C. Following an initial injection of 2 μl, titrations were performed by making 20 13 μl injections of peptide into EphB4 in the sample cell to produce an approximate final 2:1 ratio of injectant to sample in the cell. […] Corrections for heats of dilution for the peptides and ephrin-B2 were determined by performing titrations of peptide or ephrin-B2 solutions into buffer. […] Titration data were analyzed using Origin ITC software (Version 5.0, Microcal Software Inc.) and curves were fit to a single binding site model (Wiseman et al., 1989). […] A lower limit for the binding constant was determined by performing a titration in which the sample cell contained 30 μM EphB4 and the injection syringe contained a 1.45 mM solution of the peptide, producing a final ratio of peptide to EphB4 of 10:1.

In test [3] the target is T2, human EphB4 ephrin-binding domain, …. The test is described as follows: ITC at 25 °C, peptide injected into human EphB4 (17-196). The protocol: (§4) Isothermal titration calorimetry and ELISA experiments: EphB4and ephrin-B2 were either dialyzed or buffer exchanged into 50 mM Tris-Cl (pH 7.8 at 25° C.), 150 mM NaCl, 1 mM CaCl₂, prior to use in calorimetry experiments. Peptides were dissolved into the same buffer used for the dialysis of EphB4. The concentration of EphB4, ephrin-B2 and the peptides was determined by measuring the A₂₈₀ and using the theoretical-extinction coefficient (Gill and von Hippel, 1989). ITC experiments were performed with a Microcal MCS ITC at 25° C. Following an initial injection of 2 μl, titrations were performed by making 20 13 μl injections of peptide into EphB4 in the sample cell to produce an approximate final 2:1 ratio of injectant to sample in the cell. For most titrations the sample cell contained 15 μM EphB4 and the injection syringe contained a 200 μM solution of the peptide. Titrations with ephrin-B2 contained 13 μM EphB4 in the sample cell and 290 μM ephrin-B2 in the syringe. Prior to loading the sample cell, EphB4 was centrifuged at 18,000 g for 5 min at 4° C. to remove aggregates and degassed for 5 minutes at room temperature. Corrections for heats of dilution for the peptides and ephrin-B2 were determined by performing titrations of peptide or ephrin-B2 solutions into buffer. Dilution data were fit to a line and subtracted from the corresponding titration data. Titration data were analyzed using Origin ITC software (Version 5.0, Microcal Software Inc.) and curves were fit to a single binding site model (Wiseman et al., 1989). […] A lower limit for the binding constant was determined by performing a titration in which the sample cell contained 30 μM EphB4 and the injection syringe contained a 1.45 mM solution of the peptide, producing a final ratio of peptide to EphB4 of 10:1. The data was fit assuming a stoichiometry of 1 and at least 60% saturation of binding at the final peptide concentration (Turnbull and Daranas, 2003).

Test [4] shares this target. Kind of test: ITC at 25 °C, 1.45 mM peptide injected into 30 µM human EphB4 (17-196). The protocol:
as §2, §3

Test [5] has the same target. The test is described as follows: ITC at 25 °C, 290 µM ephrin-B2 injected into 13 µM human EphB4 (17-196). As for the experimental part: as §2
as §4, with “10:1.” for “10:1. The data was fit assuming a stoichiometry of 1 and at least 60% saturation of binding at the final peptide concentration (Turnbull and Daranas, 2003).”

Test [6] concerns the target T1, mouse EphB4 ectodomain Fc fusion …. The test is described as follows: competition ELISA: inhibition of mouse ephrin-B2 AP binding to immobilized mouse EphB4 ectodomain Fc; text sentence that cites Table 1A; same ELISA. As for the experimental part:
as §1

The source of these data is patent US20080064052A1, “Crystal of a Receptor-Ligand Complex and methods of use” (priority 2006, published 2008).

B1: LFSP-RAW peptide (LFSPNGPIARAW) (peptide)
peptide: LFSPNGPIARAW
notes: TNYL-RAW without Thr-P1, Asn-P2 and Tyr-P3
By IC50 is commonly meant the concentration that gives 50% inhibition. A high value points to a need for much substance. In general, Kd refers to the equilibrium constant for the complex coming apart. Read a high Kd as weaker binding. Molecule B1 returned a half-maximal inhibitory concentration (IC50) in test [1] of around 15000 nM. The “fold reduction in affinity (against the peptides that keep Tyr-P3)” value in test [2] turned out to be 40 fold. Also, in test [3], binding was characterised by a dissociation constant (Kd) of 3500 nM, the TΔS came out at 2.1 kcal/mol, the ΔG was -7.4 kcal/mol and the ΔH was -5.3 kcal/mol.

On to TNYLFSPNGPIA [TNYL peptide (TNYLFSPNGPIA)], for which the IC50 in test [1] was 150000 nM. In test [4], the ΔH was -9.6 kcal/mol.

B2: Eph-binding domain of human ephrin-B2 (ligand)
chain: IVLEPIYWNSSNSKFLPGQGLVLYPQIGDKLDIICPKVDSKTVGQYEYYKVYMVDKDQADRCTIKKENTPLLNCAKPDQDIKFTIKFQEFSPNLWGLEFQKNKDYYIISTSNGSLEGLDNQEGGVCQTRAMKILMKVG
In test [5], B2 showed a dissociation constant Kd of 40 nM, a TΔS of 13.4 kcal/mol, a ΔG of -10.2 kcal/mol and a ΔH of 3.3 kcal/mol.

B3: TNYL-RAW peptide (TNYLFSPNGPIARAW) (peptide)
peptide: TNYLFSPNGPIARAW
notes: Synthetic 15-mer (Biopeptide, Inc.); Peptide positions are printed as P1 to P15; also called antagonistic peptide
Turning to B3, the IC50 in test [1] came to 15 nM. For the same molecule, in test [3], the Kd was 71 nM, the TΔS was -4.9 kcal/mol, the ΔG was -9.8 kcal/mol and the ΔH is -14.7 kcal/mol. Besides, the IC50 in test [6] is around 15 nM.
